The values that follow come from patent US10976314B2, “Device, non-transitory computer-readable storage medium, and method for determining type of target peptide” (SYSMEX CORPORATION, priority 2014, dated 2021).

Series [1] has as its target human serum albumin (HSA) (Homo sapiens, UniProt P02768). To be noted: for b value of Equation (I) (dissociation mode: b<0.241 single, b≥0.241 multiple) / Δλ (maximum layer thickness change amount, second information): peptide concentration per Table 5.
For series [2] the following is noted: cited from earlier work; for Isoelectric point: Table 5; for Isoelectric point pI: Table 1.

Like-named read-outs stand apart in the source and are kept apart here. Peptide text beside a SMILES is read from it.

As for “ELN 11mer: the 548 to 558th fragments of the amino acid sequence of elastin; SEQ ID NO: 20, GVPGLGVGAGV (listed as Homo sapiens)”, in series [1] (HSA sensor chip), the “b value of Equation (I) (dissociation mode: b<0.241 single, b≥0.241 multiple)” value (“b value of Equation (I)” for short) turned out to be 0 and the “Δλ (maximum layer thickness change amount, second information)” value came to 0.043 nm. The “Koff (dissociation rate constant, first information)” value (shortened to “Koff”) in series [1] (pH 6.9) was 0.00016 s⁻¹. For the same molecule, the Isoelectric point in series [2] was 5.5.

Turning to “IS 13mer: the 237 to 249th fragments of the amino acid sequence of HSA; SEQ ID NO: 21, AWAVARLSQRFPK (listed as Homo sapiens)”, in series [1] (HSA sensor chip), the “b value of Equation (I)” value worked out at 0.756 and the “Δλ (maximum layer thickness change amount, second information)” value is listed as 0.061 nm. The “Koff” value in series [1] (pH 6.9) turned out to be 0.01708 s⁻¹. Moreover, the Isoelectric point in series [2] is on record as 12.

In the case of `NC(N)=NCCC[C@H](NC(=O)[C@H](Cc1ccccc1)NC(=O)[C@@H]1CCCN1C(=O)[C@H](CO)NC(=O)[C@H](Cc1ccccc1)NC(=O)CNC(=O)[C@@H]1CCCN1C(=O)[C@@H]1CCCN1C(=O)[C@@H](N)CCCN=C(N)N)C(=O)O` [Bradykinin] (H-RPPGFSPFR-OH), in series [1] (pH 6.9), the “Koff” value was determined as 0.01721 s⁻¹.

For “Lys-decapeptide (KKKKKKKKKK; Synthetic Lys decapeptide) [(Lys) 10]”, in series [1] (HSA sensor chip), the “b value of Equation (I)” value amounted to 0.669 and the “Δλ (maximum layer thickness change amount, second information)” value stood at 0.045 nm. Further, in series [1] (pH 6.9), the “Koff” value is 0.0002 s⁻¹. Also, in series [2], the Isoelectric point is listed as 11.

As for “ACTH partial peptide at the 1-41 positions (GPSYSMEHFRWGKPVGKKRRPVKVYPNGAEDESAEAFPLEF; listed as Homo sapiens) [ACTH41]”, in series [2], the “Isoelectric point pI” value is recorded as 8.3.

For “inter-α-trypsin inhibitor heavy chain 4 (GESRNRNVHSGSTFFKYYLQGAKIPKPEASFS; listed as Homo sapiens) [ITIH4]”, the “Isoelectric point pI” value in series [2] is recorded as 9.8.

As to “ACTH partial peptide at the 1-39 positions (SYSMEHFRWGKPVGKKRRPVKVYPNAGENESAEAFPLEF; listed as Homo sapiens) [ACTH39]”, the “dissociation mode (third information)” value in series [1] (HSA sensor chip, peptide map FIG. 6, peptide 2 μM) is given as “multiple dissociation mode”. The “Isoelectric point pI” value in series [2] is recorded as 9.3.

For the molecule arginine decapeptide [(Arg) 10], the “Isoelectric point pI” value in series [2] is reported as 13.

As to “fibrinogen α (DEAGSEADHEGTHSTKRGHAKSRPV; listed as Homo sapiens)”, the “Isoelectric point pI” value in series [2] was 6.3.

“ACTH15: SEQ ID NO: 11, YSMEHFRWGKPVGKK (listed as Homo sapiens)”: in series [1] (pH 6.9), the “Koff” value was 0.01147 s⁻¹. In addition, in series [2], the “Isoelectric point pI” value is 10 and the Isoelectric point was 10.

On to Amyloid β40 peptide [AB40], for which, in series [2], the “Isoelectric point pI” value was 5.3 and the Isoelectric point was 5.3.

As for amyloid β42 peptide [AB42], in series [2], the “Isoelectric point pI” value is on record as 5.3 and the Isoelectric point was 5.3.

Take “His-decapeptide (HHHHHHHHHH; Synthetic His decapeptide) [(His) 10]”: in series [1] (pH 6.9), the “Koff” value worked out at 0.00073 s⁻¹. In addition, the Isoelectric point in series [2] is recorded as 7.4.

With glucagon, the “Isoelectric point pI” value in series [2] is 6.8.

In the case of (His) 3: HHH, in series [1] (HSA sensor chip), the “b value of Equation (I)” value was determined as 0.344 and the “Δλ (maximum layer thickness change amount, second information)” value stood at 0.027 nm. Further, the “Koff” value in series [1] (pH 6.9) was found to be 0.00257 s⁻¹. Also, in series [2], the Isoelectric point is 7.

Regarding “kininogen (HNLGHGHKHERDQGHGHQR; listed as Homo sapiens)”, in series [1] (HSA sensor chip), the “b value of Equation (I)” value was 1.093 and the “Δλ (maximum layer thickness change amount, second information)” value is 0.082 nm. The “Koff” value in series [1] (pH 6.9) came out at 0.00493 s⁻¹. Besides, in series [2], the “Isoelectric point pI” value was 8.8 and the Isoelectric point was 8.8.

Consider “ACTH partial peptide at the 1-24 positions [ACTH24]”, for which the “Isoelectric point pI” value in series [2] was 10.6.

With “histidine eicosa peptide (HHHHHHHHHHHHHHHHHHHH; Synthetic His eicosapeptide) [(His) 20]”, the “Isoelectric point pI” value in series [2] was 7.6.

As to brain natriuretic peptide [BNP], in series [2], the “Isoelectric point pI” value is on record as 11.

For “dynorphin A (YGGFLRRIRPKLK; listed as Homo sapiens)”, the “Koff” value in series [1] (HSA sensor chip, peptide concentration during measurement per Table 5 (1-1000 μM), 0.1 M sodium phosphate buffer pH 6.9) was found to be 0.00617 s⁻¹. Besides, in series [2], the “Isoelectric point pI” value is 11.7 and the Isoelectric point is recorded as 11.7.

B1: Lysozyme (protein, listed as Homo sapiens)
chain: KVYGRCELAAAMKRLGLDNFRGYSLGNWVCAAKFESNFNTHATNRNTDGSTDYGILQINSRWWCNDGRTPGSRNLCNIPCSALLSSDTIASVNCAKKIVSDGNGMNAWVAWRKRCKGTDVNAWTRGCRL
Consider B1, for which, in series [1] (HSA sensor chip), the “b value of Equation (I)” value came out at 0.278 and the “Δλ (maximum layer thickness change amount, second information)” value is recorded as 0.12 nm. Further, the “Koff” value in series [1] (pH 6.9) stood at 0.0066 s⁻¹. For the same molecule, in series [2], the Isoelectric point is reported as 9.4.
